Reference: US20190233512A1 (SUTRO BIOPHARMA, published 2019)
Positions count from the first letter of the chain named.

B1: SRP1848-F04 (antibody, V domains shown)
VH: EVQLVESGGGLVQPGGSLRLSCAASGFNISNYSIHWVRQAPGKGLEWVGEIYPIDGITDYADSVKGRFTISADTSKNTAYLQMNSLRAEDTAVYYCARGSWFWRSGYGYYLDYWGQGTLVTVSS
VL: not shown
notes: VH/VL only; Fc-bearing IgG format with trastuzumab LC, HIS/FLAG-tagged, cell-free expressed; constant regions not tied; also called Antibody 39
B2: SRP1848-A10 (antibody, V domains shown)
VH: B1 VH with S30R, N31K, V37A, E50D, Y52F, G56D, F102S, R104P, Y107H, G108S
VL: not shown
notes: VH/VL only; Fc-bearing IgG format with trastuzumab LC, HIS/FLAG-tagged, cell-free expressed; constant regions not tied; also called Antibody 8
B3: SRP1848-E01 (antibody, V domains shown)
VH: EVQLVESGGGLVQPGGSLRLSCAASGFNITNKYIHWVRQAPGKGLEWVGGITPFDGFTDYADSVKGRFTISADTSKNTAYLQMNSLRAEDTAVYYCARGSWSWPAGYGYYQDYWGQGTLVTVSS
VL: not shown
notes: VH/VL only; Fc-bearing IgG format with trastuzumab LC, HIS/FLAG-tagged, cell-free expressed; constant regions not tied; also called Antibody 31
B4: SRP1848-B01 (antibody, V domains shown)
VH: B1 VH with S30R, I54V, S100F, F102S, R104P, G108S, Y110F
VL: not shown
notes: VH/VL only; Fc-bearing IgG format with trastuzumab LC, HIS/FLAG-tagged, cell-free expressed; constant regions not tied; also called Antibody 9
B5: SRP1848-C04 (antibody, V domains shown)
VH: B1 VH with S30R, N31H, I54G, D55P, I57N, W101L, F102S, S105A
VL: not shown
notes: VH/VL only; Fc-bearing IgG format with trastuzumab LC, HIS/FLAG-tagged, cell-free expressed; constant regions not tied; also called Antibody 20
B6: SRP1848-B07 (antibody, V domains shown)
VH: B3 VH with T30S, N31R, K32F, T52S, F54Y
VL: not shown
notes: VH/VL only; Fc-bearing IgG format with trastuzumab LC, HIS/FLAG-tagged, cell-free expressed; constant regions not tied; also called Antibody 14
B7: SRP1848-F06 (antibody, V domains shown)
VH: B1 VH with N31L, Y32S, S33Y, E50G, Y52S, I57N, S100F, F102A
VL: not shown
notes: VH/VL only; Fc-bearing IgG format with trastuzumab LC, HIS/FLAG-tagged, cell-free expressed; constant regions not tied; also called Antibody 41
B8: SRP1848-F08 (antibody, V domains shown)
VH: B1 VH with S25G, Y32H, L45V, I54V, Q82R, F102Y, R104Q, G108S
VL: not shown
notes: VH/VL only; Fc-bearing IgG format with trastuzumab LC, HIS/FLAG-tagged, cell-free expressed; constant regions not tied; also called Antibody 43
B9: SRP1848-A06 (antibody, V domains shown)
VH: B3 VH with T30G, K32S, F54I, F57N, S100A, P104R, A105S, Q111I
VL: not shown
notes: VH/VL only; Fc-bearing IgG format with trastuzumab LC, HIS/FLAG-tagged, cell-free expressed; constant regions not tied; also called Antibody 4
B10: SRP1848-C07 (antibody, V domains shown)
VH: B1 VH with S30R, N31K, E50D, Y52F, V64M, F102S, R104P, S105A, L111Q
VL: not shown
notes: VH/VL only; Fc-bearing IgG format with trastuzumab LC, HIS/FLAG-tagged, cell-free expressed; constant regions not tied; also called Antibody 22
B11: SRP1848-D04 (antibody, V domains shown)
VH: B1 VH with N31H, I54R, R87S, S100Y
VL: not shown
notes: VH/VL only; Fc-bearing IgG format with trastuzumab LC, HIS/FLAG-tagged, cell-free expressed; constant regions not tied; also called Antibody 26
B12: SRP1848-A08 (antibody, V domains shown)
VH: B1 VH with F27S, S30R, N31K, Y32H, E50S, I54N, I57T, S105A
VL: not shown
notes: VH/VL only; Fc-bearing IgG format with trastuzumab LC, HIS/FLAG-tagged, cell-free expressed; constant regions not tied; also called Antibody 6
B13: SRP1848-B09 (antibody, V domains shown)
VH: B3 VH with S25G, K32Y, F54V, F57Y, S63R, S100A, P104R, A105S, Q111M
VL: not shown
notes: VH/VL only; Fc-bearing IgG format with trastuzumab LC, HIS/FLAG-tagged, cell-free expressed; constant regions not tied; also called Antibody 15
B14: SRP1848-D07 (antibody, V domains shown)
VH: B1 VH with N31K, S33Y, E50G, Y52S, I54N, I57Y, T69A, S100F, F102A
VL: not shown
notes: VH/VL only; Fc-bearing IgG format with trastuzumab LC, HIS/FLAG-tagged, cell-free expressed; constant regions not tied; also called Antibody 28

The binders below were run against T1, Cynomolgus folate receptor alpha (cynomolgus monkey, UniProt P15328 25-234 (human entry)) (assay: FACS, CHO-cFOLR1 cells).
T1 construct: Stably expressed on CHO cells (CHO-cFOLR1); also called cynomolgus FOLR1; CHO-cFOLR1
T1 sequence (P15328 other isoform, or with tags, fused parts or gaps limits assumed): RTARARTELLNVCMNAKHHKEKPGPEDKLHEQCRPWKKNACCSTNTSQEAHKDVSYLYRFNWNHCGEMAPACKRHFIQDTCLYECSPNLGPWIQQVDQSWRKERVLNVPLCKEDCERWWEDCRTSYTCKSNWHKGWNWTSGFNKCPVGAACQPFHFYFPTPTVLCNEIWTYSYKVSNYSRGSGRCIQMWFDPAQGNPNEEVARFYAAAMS

Bmax [MFI] | Binder
26400 | B1
14800 | B2
22400 | B3
23900 | B4
22000 | B5
25500 | B6
26500 | B7
21000 | B8
20200 | B9
18100 | B10
25700 | B11
26200 | B12
25200 | B13
24300 | B14

The binders below were run against T2, Human folate receptor alpha (hFOLR1) (human, UniProt P15328 25-234) (assay: FACS, CHO-hFOLR1 cells).
T2 construct: Stably expressed on CHO cells (CHO-hFOLR1) for flow cytometry; endogenous on FOLR1-positive KB and Igrov1 cells in the killing assay; also called human FOLR1; FolRα
Protocol: CHO cells were transfected to stably express human (CHO-hFOLR1), cynomolgus (CHO-cFOLR1), or mouse (CHO-mFOLR1) target molecule FOLR1 on the cell surface. Parental CHO cells were used as a negative control to determine background binding levels. Parental CHO and stably transfected CHO-hFOLR1, CHO-cFOLR1, and CHO-mFOLR1 cells were cultured in Ham's F-12: high glucose DMEM (50:50) (Corning, Cellgro-Mediatech) supplemented with 10% heat-inactivated fetal bovine serum (Corning, Cellgro-Mediatech), 1% Penicillin/Streptomycin (Corning, Cellgro-Mediatech) and 2 mmol/L-glutamax (Life Technology).
A mixture of fluoresecent-labeled parental CHO cells and unlabeled CHO-hFOLRlcells were prepared as follows. Parental CHO cells were washed twice in PBS and incubated in PBS containing with 1 nM CellTrace™ Oregon Green488® (Life Technologies) at 37° C. for 30 minutes. Labeled parental CHO cells were then washed 2× with Ham's F-12 media and 2× with FACS buffer (PBS with 1% bovine serum albumin). Unlabeled CHO-hFOLR1 cells were similarly washed and prepared. Labeled parental CHO and unlabeled CHO-hFOLR1 cells were combined at 1:1 ratio and seeded at 50 μL per well (200,000 cells per well) in 96 well polypropylene plates. Cells were mixed with 50 μL of test antibodies (i.e., anti-FOLR1 variants) serially diluted in FACS buffer and incubated on ice for 60 mins. Cells were washed with FACS buffer and incubated on ice for 60 mins with 100 μL FACS buffer containing 2.5 μg/mL R-Phycoerythrin-conjugated goat anti-Human IgG (Jackson ImmunoResearch Laboratories, West Grove, Pa.). Cells were washed twice with FACS buffer, fixed in 2% paraformaldehyde in PBS (Santa Cruz Biotechnology; Dallas, Tex.) for 10 mins on ice in the dark, and analyzed using the BD LSR II Flow Cytometer (BD Biosciences; San Jose, Calif.). Data were analyzed using FlowJo® software (FlowJo, LLC; Ashland, Oreg.) to determine mean fluorescence intensities. Binding constants were calculated using the statistical software, GraphPad Prism (GraphPad Software; La Jolla, Calif.) using the nonlinear regression equation, one site-specific binding with Hill slope. Secondary antibody alone was used as a control, in addition to measuring non-specific antibody binding to CHO parental cells.

T2 sequence (P15328 25-234 limits assumed): as the sequence (P15328 other isoform, or with tags, fused parts or gaps limits assumed) above, with T2I, R4W, K37R, R117Q, P146A, Y171H counted along it

Bmax [MFI] | Binder
26900 | B1
27100 | B2
26400 | B3
26600 | B4
26300 | B5
25600 | B6
25600 | B7
26500 | B8
24500 | B9
28800 | B10
29300 | B11
28600 | B12
25200 | B13
25700 | B14

What follows are binders tested against T3, Murine folate receptor alpha (mouse, UniProt P35846 25-232) (assay: FACS, CHO-mFOLR1 cells).
T3 construct: Stably expressed on CHO cells (CHO-mFOLR1); also called mouse FOLR1; CHO-mFOLR1
T3 sequence (P35846 25-232 limits assumed): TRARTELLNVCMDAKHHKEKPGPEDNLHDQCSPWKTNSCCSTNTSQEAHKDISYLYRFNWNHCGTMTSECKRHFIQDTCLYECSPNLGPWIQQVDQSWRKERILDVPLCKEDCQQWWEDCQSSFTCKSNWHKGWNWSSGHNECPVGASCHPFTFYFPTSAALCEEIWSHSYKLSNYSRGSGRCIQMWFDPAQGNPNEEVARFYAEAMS

Bmax [MFI] | Binder
2740 | B1
10200 | B2
3400 | B4
2510 | B5
2770 | B9
3170 | B10
3200 | B12
1420 | B13
